# Test results as given in publication PMC8548535, “Kinetic and structural roles for the surface in guiding SAS-6 self-assembly to direct centriole architecture” (Nature Communications, 2021).
# B1: Chlamydomonas reinhardtii SAS-6[NL] (CrSAS-6[NL], amino acids 1-503) (domain or fragment, UniProt A9CQL4 1-503, looked up)
# chain: MPLLLDDGDPKAQTGFDLSTATTLFWRPVPVHVKQQDREDVLEELTFRILTGVAKQNHNLRILRIHISSDSDLFFLHTLEVSEEDFQSLKNDQGILVDFASFPGKIISLLEKCILAQPGDSPRFQAVLTIRGGESVFKIVEINDFKQLPHITLAFRPGNDSVVKQFLAFRLSEVKGTCHDLSDDLSRTRDDRDSMVAQLAQCRQQLAQLREQYDKHLLEVQAQAKTQQASAHEERIREKSQLKDQFEKERGEMEGRYRDQIAALNTRLGELDTENRKLREVKYELDTKVSELSHKLGSSEGSNRSLEEETARLRSLNQQLSSSKHELEIQLNEAKAKVLALDEKAQSQGDVIEQQRGRLRDMEAALRQTEQRCADLRDTLASAEGRAKEAQAEVLKGNQAIEKLTNDLRLAKEKTKRKAAIILRQEEELQEREQSLANATRDVGVLGQQAESLRKDVASLHSENDSLRSKLEDSKQQLQSNEQMIRWLNQQVTEAQLHASGAT
# notes: SAS-6 of Chlamydomonas reinhardtii, amino acids 1-503: globular N-terminal head domain and the coiled-coil (spokes), without the unstructured C-terminal moiety; Forms a homodimer through its coiled coil (monomer-dimer Kd measured here); source: E. coli BL21(DE3), purified (HisTrap Ni2+-Sepharose, PreScission cleavage, reverse HisTrap, SEC Superdex 200)
# Columns and labels:
# [1] = target: the molecule itself; assay: circular dichroism, concentration series; monomer to dimer; CD signal at 222 nm at varying protein concentrations, 20 °C, 20 mM potassium phosphate pH 8.0, 150 mM NaF, fitted with a two-state association model
# [2] = target: the molecule itself; assay: high-speed atomic force microscopy (PORT-HS-AFM); homodimer with homodimer (and higher oligomers, rings) adsorbed on a mica surface; 20 mM Tris-HCl, 150 mM KCl, pH 7.4, 6-10 °C; ~120 nM in solution (~14 nM pre-incubated on mica for ring opening and closing); effective surface constants, Kd from a fit of a coagulation-fragmentation model
protein,measurement,setting,value
B1,Kd,[1],~20 nM
same,stoichiometry N,[2],7 to 10 homodimers
